B1: His-tagged VCIP135(744-1221) (domain or fragment, rat, UniProt Q8CF97 744-1221, looked up)
chain: TVSPSTIRDGPSSAPATPTKAPYSPTTSKEKKIRITTNDGRQSMVTLKSSTTFFELQESIAREFNIPPYLQCIRYGFPPKELMPPQAGMEKEPVPLQHGDRITIEILKGKAEGGPSTAAHSAHTVRQEEIAVTGKLSSKELQEQADKEMYSLCLLATLMGEDVWSYAKGLPHMFQQGGVFYNIMKKTMGMADGKHCTFPHLPGKTFVYNASEDRLELCVDAAGHFPIGPDVEDLVKEAVSQVRAEATTRSRESSPSHGLLKLGSGGVVKKKSEQLHNVTAFQGKGHSLGTASSNPHMDPRARETLAVRKHNTGTDFSNSSIKTEPPVFTAASSNSELIRIAPGVVTMRDGRQIDPDVVEAQRKKLQEMVSSIQASMDKHLRDQSTEQTPSDLSQRKVEAVSSSVRPGNLQTGLPESFSLTGGTENLNTETTDSRVADVLGAAFATRSKAQKENSMEEPEEMDSQDAETTNTTEPMDHS
notes: also called C-terminal half of VCIP135
B2: His-tagged VCIP135(903-1053) (domain or fragment, rat, UniProt Q8CF97 903-1053, looked up)
chain: GEDVWSYAKGLPHMFQQGGVFYNIMKKTMGMADGKHCTFPHLPGKTFVYNASEDRLELCVDAAGHFPIGPDVEDLVKEAVSQVRAEATTRSRESSPSHGLLKLGSGGVVKKKSEQLHNVTAFQGKGHSLGTASSNPHMDPRARETLAVRKH
B3: His-tagged VCIP135(1-743) (domain or fragment, rat, UniProt Q8CF97 1-743, looked up)
chain: MSQPPPPPPLPPPPPPPEAPQTSSSLAAAATPGGLSKRRDRRILSGSCPDPKCQARLFFPASGSVSIECTECGQRHEQQQLLGVEEVTDPDVVLHNLLRNALLGVTGAPKKNTELVKVMGLSNYHCKLLSPILARYGMDKQTGRAKLLRDMNQGELFDCALLGDRAFLIEPEHVNTVGYGKDRSGSLLYLHDTLEDIKRANKSQECLIPVHVDGDGHCLVHAVSRALVGRELFWHALRENLKQHFQQHLARYQALFHDFIDAAEWEDIINECDPLFVPPEGVPLGLRNIHIFGLANVLHRPIILLDSLSGMRSSGDYSATFLPGLIPAEKCTGRDGHLNKPICIAWSSSGRNHYIPLVGIKGAALPKLPMNLLPKAWGVPQDLIKKYIKLEEDGGCVIGGDRSLQDKYLLRLVAAMEEVFMDKHGIHPSLVADVHQYFYRRTGVIGVQPEEVTAAAKKAVMDNRLHKCLLCGALSELHVPPEWLAPGGKLYNLAKSTHGQLRPDKNYSFPLNNLVCSYDPVKDVLLPDYGLSNLTACNWCHGTSVRRVRGDGSIVYLDGDRTNSRSTGGKCGCGFKHFWEGKEYDNLPEAFPITLEWGGRVVRETVYWFQYESDPSLNSNVYDVAMKLVTKHFPGEFGSEILVQKVVHTILHQTAKKNPDDYTPVNIDGAHAQRIGDVQGQELESQLPTKIILTGQKTKTLHKEELNMSKTERTIQQNITEQASVMQKRKTEKLKQEQKGQPR
notes: also called N-terminal half of VCIP135
B4: His-tagged VCIP135(1-390) (domain or fragment, rat, UniProt Q8CF97 1-390, looked up)
chain: MSQPPPPPPLPPPPPPPEAPQTSSSLAAAATPGGLSKRRDRRILSGSCPDPKCQARLFFPASGSVSIECTECGQRHEQQQLLGVEEVTDPDVVLHNLLRNALLGVTGAPKKNTELVKVMGLSNYHCKLLSPILARYGMDKQTGRAKLLRDMNQGELFDCALLGDRAFLIEPEHVNTVGYGKDRSGSLLYLHDTLEDIKRANKSQECLIPVHVDGDGHCLVHAVSRALVGRELFWHALRENLKQHFQQHLARYQALFHDFIDAAEWEDIINECDPLFVPPEGVPLGLRNIHIFGLANVLHRPIILLDSLSGMRSSGDYSATFLPGLIPAEKCTGRDGHLNKPICIAWSSSGRNHYIPLVGIKGAALPKLPMNLLPKAWGVPQDLIKKYIKL
notes: VCIP135, rat, residues 1-390

molecular target: T1, endogenous p97 purified from rat liver cytosol, biotinylated (rat (endogenous in rat liver), UniProt P46462 1-806, biotinylated using EZ-Link Sulfo-NHS-LC-biotin (sites not given)); test: pull-down; endogenous rat liver p97, biotinylated, immobilised on streptavidin beads; His-tagged VCIP135 or its fragments or mutants in solution; 1 mM AMP-PNP (Figs 1A, 5C, 5D: the indicated nucleotide, 1 mM); 20 mM HEPES, 100 mM KCl, 1 mM MgCl2, 1 mM DTT, 0.5% CHAPS, 10% glycerol, pH 7.4; Western blot with antibodies to p97 and His-tag; settings: both partners purified
T1 construct: p97 ATPase (VCP), endogenous protein purified from rat liver cytosol; Held on streptavidin beads through the biotin; also called p97ATPase; VCP; source: purified from rat liver cytosol
T1 sequence (P46462 whole entry, the tested form may be a part): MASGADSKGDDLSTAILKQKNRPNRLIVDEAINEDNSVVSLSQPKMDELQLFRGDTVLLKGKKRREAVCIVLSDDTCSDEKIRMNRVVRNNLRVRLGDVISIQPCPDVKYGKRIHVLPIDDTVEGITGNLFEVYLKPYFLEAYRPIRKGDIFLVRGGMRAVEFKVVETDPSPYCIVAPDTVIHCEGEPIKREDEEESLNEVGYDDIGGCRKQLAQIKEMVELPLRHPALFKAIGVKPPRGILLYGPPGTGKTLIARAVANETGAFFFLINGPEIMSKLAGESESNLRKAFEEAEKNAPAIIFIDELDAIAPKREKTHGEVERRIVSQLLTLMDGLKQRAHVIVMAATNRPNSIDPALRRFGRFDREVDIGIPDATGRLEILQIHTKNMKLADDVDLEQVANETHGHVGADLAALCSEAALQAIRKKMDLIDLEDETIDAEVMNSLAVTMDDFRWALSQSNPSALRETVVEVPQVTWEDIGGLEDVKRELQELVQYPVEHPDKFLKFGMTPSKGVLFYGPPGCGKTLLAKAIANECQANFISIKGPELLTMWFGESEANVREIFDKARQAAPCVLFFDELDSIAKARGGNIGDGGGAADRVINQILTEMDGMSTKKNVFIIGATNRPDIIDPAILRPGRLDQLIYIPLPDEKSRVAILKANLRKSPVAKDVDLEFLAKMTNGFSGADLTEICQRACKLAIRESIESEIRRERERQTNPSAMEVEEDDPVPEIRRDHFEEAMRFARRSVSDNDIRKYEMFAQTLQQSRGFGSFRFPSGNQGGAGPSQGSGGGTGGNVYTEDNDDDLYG

Binding result, binds:
B1
B2
B3
B4

From publication PMC10805704, “VCIP135 associates with both the N- and C-terminal regions of p97 ATPase” (The Journal of Biological Chemistry, 2023)
